# From patent US20250304965A1, “DOUBLE-STRANDED RNA MOLECULE AND PHARMACEUTICAL USE THEREOF” (MACAU UNIVERSITY OF SCIENCE AND TECHNOLOGY, priority 2022, published 2025)
# [Ψ] = pseudouridine
# B1: GL12 mimic: chemically modified GL2 double-stranded RNA (pseudouridine); antisense SEQ ID NO: 22, sense SEQ ID NO: 26, length 41 (nucleic acid)
# antisense: AUAAGGAAUCUGUAGAAGUUCGAUUCUUCUUGGGCUUACCA
# sense: UGGUAAGCCCAAGAAGAAUCGAACUUCUACAGAUUCCUUAU
# modifications: antisense: RNA, [Ψ] at 20, backbone not given here; sense: RNA, backbone not given here
# Columns and labels:
# Type in all cases: cell-based, human
# A2780 cells = experiment: MTT cytotoxicity analysis, ovarian cancer cells A2780
# Protocol: (§1) A2780 and HCT-8 cell lines were cultured in RPMI 1640 medium containing 10% FBS and 1% penicillin/streptomycin. HepG2 cell lines were cultured in MEM medium containing 10% FBS and 1% penicillin/streptomycin. All the above cell lines were cultured at 37° C. in a humidified atmosphere containing 5% CO2.
# (§2) In the cytotoxicity analysis, exponentially growing cells of each cancer cell line were inoculated at a density of 5000 cells per well in a 100 μL medium in a 96-well microplate and allowed to adhere for 24 hours prior to treatment. Then obtained RNA molecules at successive concentrations with a nucleic acid transfer vector, namely, Lipofectamine™ RNAiMAX transfection reagent (Thermo Fisher Scientific, United States), were added to the cells. After 48 hours of treatment, MTT solution (50 μL per well, 1 mg/mL solution) was added to each well and incubated at 37° C. for 4 hours. Then 200 μL of dimethyl sulfoxide (DMSO) was added, and an optical density of the resulting solution was measured via calorimetry by using SpectraMax 190 microplate reader (Molecular Devices, United States) at 570 nm. Dose-response curves were obtained and IC50 values were calculated via GraphPad Prism 5 (GraphPad, United States). Each experiment was performed three times.
# (§3) Before addition of the MTT solution, the inventor determined the cytotoxic effects and IC 50 of the GL1, GL2, GL4, and GL6 mimics at different concentrations of 6.25 nM, 12.5 nM, 25 nM, 50 nM, 100 nM, and 200 nM on A2780, HCT-8 and HepG2 cells. After 48 hours of the treatment of the double-stranded RNA molecules, the cell viability of these cells was compared with that of the control group and the RNAiMAX group. Paclitaxel was used in a comparative example. […] The results were compared with those of the control group and the RNAiMAX group using the transfection agent. For IC50, refer to Table 4. Paclitaxel was used in a comparative example.
# (§4) Then the inventor specifically determined the cytotoxic effects and IC50 of the RNA molecules GL2 mimic and different chemically modified GL10, GL11 and GL12 mimics at different concentrations of 6.25 nM, 12.5 nM, 25 nM, 50 nM, 100 nM, and 200 nM on A2780, HCT-8 and HepG2 cells. […] For IC50, refer to Table 5. Paclitaxel was used in a comparative example.
# HCT-8 cells = experiment: MTT cytotoxicity analysis, colorectal cancer cells HCT-8
# Protocol: as §1, §2, §3, §4
# HepG2 cells = experiment: MTT cytotoxicity analysis, liver cancer cells HepG2
# Protocol: as §1, §2, §3, §4
molecule,measurement,setting,value
B1,IC50,"A2780 cells; A2780 ovarian cancer cells, 48 hours of treatment, Lipofectamine RNAiMAX transfection reagent, MTT, read-out: Median inhibitory concentration IC50",43.7 nM
same,inhibition of growth and proliferation (cell viability vs control and RNAiMAX group),"A2780 cells; ovarian cancer cells A2780, 6.25-200 nM, 48 hours, FIG. 6-8",have a dose-dependent effect on inhibiting the growth and proliferation
same,IC50,"HCT-8 cells; HCT-8 colorectal cancer cells, 48 hours of treatment, Lipofectamine RNAiMAX transfection reagent, MTT, read-out: Median inhibitory concentration IC50",32.4 nM
same,inhibition of growth and proliferation (cell viability vs control and RNAiMAX group),"HCT-8 cells; colon cancer cells HCT-8, 6.25-200 nM, 48 hours, FIG. 6-8",have a dose-dependent effect on inhibiting the growth and proliferation
same,IC50,"HepG2 cells; HepG2 liver cancer cells, 48 hours of treatment, Lipofectamine RNAiMAX transfection reagent, MTT, read-out: Median inhibitory concentration IC50",183 nM
same,inhibition of growth and proliferation (cell viability vs control and RNAiMAX group),"HepG2 cells; liver cancer cells HepG2, 6.25-200 nM, 48 hours, FIG. 6-8",have a dose-dependent effect on inhibiting the growth and proliferation
